According to patent publication US20210388087A1 (Chugai, published 2021):

B1: H183/L072 VL S26Q (antibody, name in Kabat numbering, V domains shown)
VH: QVQLVESGGGLVQPGRSLRLSCAASGFTFSNAWMHWVRQAPGKGLEWVAQIKDKGNAYAAYYAPSVKGRFTISRDDSKNSIYLQMNSLKTEDTAVYYCHYVHYASASTVLPAFGVDAWGQGTTVTVSS
VL: DIVMTQSPLSLPVTPGEPASISCQAQQELVHMNRNTYLHWYQQKPGQAPRLLIYKVSNRFPGVPDRFSGSGSGTDFTLKISRVEAEDVGVYYCAQGTSVPFTFGQGTKLEIK
notes: Dual-Ig
B2: H183/L072 VL S52A (antibody, name in Kabat numbering, V domains shown)
VH: QVQLVESGGGLVQPGRSLRLSCAASGFTFSNAWMHWVRQAPGKGLEWVAQIKDKGNAYAAYYAPSVKGRFTISRDDSKNSIYLQMNSLKTEDTAVYYCHYVHYASASTVLPAFGVDAWGQGTTVTVSS
VL: DIVMTQSPLSLPVTPGEPASISCQASQELVHMNRNTYLHWYQQKPGQAPRLLIYKVANRFPGVPDRFSGSGSGTDFTLKISRVEAEDVGVYYCAQGTSVPFTFGQGTKLEIK
notes: Dual-Ig
B3: H183/L072 VL S52D (antibody, name in Kabat numbering, V domains shown)
VH: QVQLVESGGGLVQPGRSLRLSCAASGFTFSNAWMHWVRQAPGKGLEWVAQIKDKGNAYAAYYAPSVKGRFTISRDDSKNSIYLQMNSLKTEDTAVYYCHYVHYASASTVLPAFGVDAWGQGTTVTVSS
VL: DIVMTQSPLSLPVTPGEPASISCQASQELVHMNRNTYLHWYQQKPGQAPRLLIYKVDNRFPGVPDRFSGSGSGTDFTLKISRVEAEDVGVYYCAQGTSVPFTFGQGTKLEIK
notes: Dual-Ig
B4: H183/L072 VL S26R (antibody, name in Kabat numbering, V domains shown)
VH: QVQLVESGGGLVQPGRSLRLSCAASGFTFSNAWMHWVRQAPGKGLEWVAQIKDKGNAYAAYYAPSVKGRFTISRDDSKNSIYLQMNSLKTEDTAVYYCHYVHYASASTVLPAFGVDAWGQGTTVTVSS
VL: DIVMTQSPLSLPVTPGEPASISCQARQELVHMNRNTYLHWYQQKPGQAPRLLIYKVSNRFPGVPDRFSGSGSGTDFTLKISRVEAEDVGVYYCAQGTSVPFTFGQGTKLEIK
notes: Dual-Ig
B5: H183/L072 VL S52K (antibody, name in Kabat numbering, V domains shown)
VH: QVQLVESGGGLVQPGRSLRLSCAASGFTFSNAWMHWVRQAPGKGLEWVAQIKDKGNAYAAYYAPSVKGRFTISRDDSKNSIYLQMNSLKTEDTAVYYCHYVHYASASTVLPAFGVDAWGQGTTVTVSS
VL: DIVMTQSPLSLPVTPGEPASISCQASQELVHMNRNTYLHWYQQKPGQAPRLLIYKVKNRFPGVPDRFSGSGSGTDFTLKISRVEAEDVGVYYCAQGTSVPFTFGQGTKLEIK
notes: Dual-Ig
B6: H183/L072 VL S52I (antibody, name in Kabat numbering, V domains shown)
VH: QVQLVESGGGLVQPGRSLRLSCAASGFTFSNAWMHWVRQAPGKGLEWVAQIKDKGNAYAAYYAPSVKGRFTISRDDSKNSIYLQMNSLKTEDTAVYYCHYVHYASASTVLPAFGVDAWGQGTTVTVSS
VL: DIVMTQSPLSLPVTPGEPASISCQASQELVHMNRNTYLHWYQQKPGQAPRLLIYKVINRFPGVPDRFSGSGSGTDFTLKISRVEAEDVGVYYCAQGTSVPFTFGQGTKLEIK
notes: Dual-Ig
B7: H183/L072 VL S26W (antibody, name in Kabat numbering, V domains shown)
VH: QVQLVESGGGLVQPGRSLRLSCAASGFTFSNAWMHWVRQAPGKGLEWVAQIKDKGNAYAAYYAPSVKGRFTISRDDSKNSIYLQMNSLKTEDTAVYYCHYVHYASASTVLPAFGVDAWGQGTTVTVSS
VL: DIVMTQSPLSLPVTPGEPASISCQAWQELVHMNRNTYLHWYQQKPGQAPRLLIYKVSNRFPGVPDRFSGSGSGTDFTLKISRVEAEDVGVYYCAQGTSVPFTFGQGTKLEIK
notes: Dual-Ig
B8: H183/L072 VL S52L (antibody, name in Kabat numbering, V domains shown)
VH: QVQLVESGGGLVQPGRSLRLSCAASGFTFSNAWMHWVRQAPGKGLEWVAQIKDKGNAYAAYYAPSVKGRFTISRDDSKNSIYLQMNSLKTEDTAVYYCHYVHYASASTVLPAFGVDAWGQGTTVTVSS
VL: DIVMTQSPLSLPVTPGEPASISCQASQELVHMNRNTYLHWYQQKPGQAPRLLIYKVLNRFPGVPDRFSGSGSGTDFTLKISRVEAEDVGVYYCAQGTSVPFTFGQGTKLEIK
notes: Dual-Ig
B9: H183/L072 VL S52M (antibody, name in Kabat numbering, V domains shown)
VH: QVQLVESGGGLVQPGRSLRLSCAASGFTFSNAWMHWVRQAPGKGLEWVAQIKDKGNAYAAYYAPSVKGRFTISRDDSKNSIYLQMNSLKTEDTAVYYCHYVHYASASTVLPAFGVDAWGQGTTVTVSS
VL: DIVMTQSPLSLPVTPGEPASISCQASQELVHMNRNTYLHWYQQKPGQAPRLLIYKVMNRFPGVPDRFSGSGSGTDFTLKISRVEAEDVGVYYCAQGTSVPFTFGQGTKLEIK
notes: Dual-Ig
B10: H183/L072 VL S26T (antibody, name in Kabat numbering, V domains shown)
VH: QVQLVESGGGLVQPGRSLRLSCAASGFTFSNAWMHWVRQAPGKGLEWVAQIKDKGNAYAAYYAPSVKGRFTISRDDSKNSIYLQMNSLKTEDTAVYYCHYVHYASASTVLPAFGVDAWGQGTTVTVSS
VL: DIVMTQSPLSLPVTPGEPASISCQATQELVHMNRNTYLHWYQQKPGQAPRLLIYKVSNRFPGVPDRFSGSGSGTDFTLKISRVEAEDVGVYYCAQGTSVPFTFGQGTKLEIK
notes: Dual-Ig
B11: H183/L072 VL S52R (antibody, name in Kabat numbering, V domains shown)
VH: QVQLVESGGGLVQPGRSLRLSCAASGFTFSNAWMHWVRQAPGKGLEWVAQIKDKGNAYAAYYAPSVKGRFTISRDDSKNSIYLQMNSLKTEDTAVYYCHYVHYASASTVLPAFGVDAWGQGTTVTVSS
VL: DIVMTQSPLSLPVTPGEPASISCQASQELVHMNRNTYLHWYQQKPGQAPRLLIYKVRNRFPGVPDRFSGSGSGTDFTLKISRVEAEDVGVYYCAQGTSVPFTFGQGTKLEIK
notes: Dual-Ig
B12: H183/L072 VL S26V (antibody, name in Kabat numbering, V domains shown)
VH: QVQLVESGGGLVQPGRSLRLSCAASGFTFSNAWMHWVRQAPGKGLEWVAQIKDKGNAYAAYYAPSVKGRFTISRDDSKNSIYLQMNSLKTEDTAVYYCHYVHYASASTVLPAFGVDAWGQGTTVTVSS
VL: DIVMTQSPLSLPVTPGEPASISCQAVQELVHMNRNTYLHWYQQKPGQAPRLLIYKVSNRFPGVPDRFSGSGSGTDFTLKISRVEAEDVGVYYCAQGTSVPFTFGQGTKLEIK
notes: Dual-Ig
B13: H183/L072 VL S52G (antibody, name in Kabat numbering, V domains shown)
VH: QVQLVESGGGLVQPGRSLRLSCAASGFTFSNAWMHWVRQAPGKGLEWVAQIKDKGNAYAAYYAPSVKGRFTISRDDSKNSIYLQMNSLKTEDTAVYYCHYVHYASASTVLPAFGVDAWGQGTTVTVSS
VL: DIVMTQSPLSLPVTPGEPASISCQASQELVHMNRNTYLHWYQQKPGQAPRLLIYKVGNRFPGVPDRFSGSGSGTDFTLKISRVEAEDVGVYYCAQGTSVPFTFGQGTKLEIK
notes: Dual-Ig
B14: H183/L072 VL S52Q (antibody, name in Kabat numbering, V domains shown)
VH: QVQLVESGGGLVQPGRSLRLSCAASGFTFSNAWMHWVRQAPGKGLEWVAQIKDKGNAYAAYYAPSVKGRFTISRDDSKNSIYLQMNSLKTEDTAVYYCHYVHYASASTVLPAFGVDAWGQGTTVTVSS
VL: DIVMTQSPLSLPVTPGEPASISCQASQELVHMNRNTYLHWYQQKPGQAPRLLIYKVQNRFPGVPDRFSGSGSGTDFTLKISRVEAEDVGVYYCAQGTSVPFTFGQGTKLEIK
notes: Dual-Ig
B15: H183/L072 VL S52F (antibody, name in Kabat numbering, V domains shown)
VH: QVQLVESGGGLVQPGRSLRLSCAASGFTFSNAWMHWVRQAPGKGLEWVAQIKDKGNAYAAYYAPSVKGRFTISRDDSKNSIYLQMNSLKTEDTAVYYCHYVHYASASTVLPAFGVDAWGQGTTVTVSS
VL: DIVMTQSPLSLPVTPGEPASISCQASQELVHMNRNTYLHWYQQKPGQAPRLLIYKVFNRFPGVPDRFSGSGSGTDFTLKISRVEAEDVGVYYCAQGTSVPFTFGQGTKLEIK
notes: Dual-Ig
B16: H183/L072 VL S26Y (antibody, name in Kabat numbering, V domains shown)
VH: QVQLVESGGGLVQPGRSLRLSCAASGFTFSNAWMHWVRQAPGKGLEWVAQIKDKGNAYAAYYAPSVKGRFTISRDDSKNSIYLQMNSLKTEDTAVYYCHYVHYASASTVLPAFGVDAWGQGTTVTVSS
VL: DIVMTQSPLSLPVTPGEPASISCQAYQELVHMNRNTYLHWYQQKPGQAPRLLIYKVSNRFPGVPDRFSGSGSGTDFTLKISRVEAEDVGVYYCAQGTSVPFTFGQGTKLEIK
notes: Dual-Ig
B17: H183/L072 VL S52H (antibody, name in Kabat numbering, V domains shown)
VH: QVQLVESGGGLVQPGRSLRLSCAASGFTFSNAWMHWVRQAPGKGLEWVAQIKDKGNAYAAYYAPSVKGRFTISRDDSKNSIYLQMNSLKTEDTAVYYCHYVHYASASTVLPAFGVDAWGQGTTVTVSS
VL: DIVMTQSPLSLPVTPGEPASISCQASQELVHMNRNTYLHWYQQKPGQAPRLLIYKVHNRFPGVPDRFSGSGSGTDFTLKISRVEAEDVGVYYCAQGTSVPFTFGQGTKLEIK
notes: Dual-Ig
B18: H183/L072 VL S52E (antibody, name in Kabat numbering, V domains shown)
VH: QVQLVESGGGLVQPGRSLRLSCAASGFTFSNAWMHWVRQAPGKGLEWVAQIKDKGNAYAAYYAPSVKGRFTISRDDSKNSIYLQMNSLKTEDTAVYYCHYVHYASASTVLPAFGVDAWGQGTTVTVSS
VL: DIVMTQSPLSLPVTPGEPASISCQASQELVHMNRNTYLHWYQQKPGQAPRLLIYKVENRFPGVPDRFSGSGSGTDFTLKISRVEAEDVGVYYCAQGTSVPFTFGQGTKLEIK
notes: Dual-Ig
B19: H183/L072 VL S52P (antibody, name in Kabat numbering, V domains shown)
VH: QVQLVESGGGLVQPGRSLRLSCAASGFTFSNAWMHWVRQAPGKGLEWVAQIKDKGNAYAAYYAPSVKGRFTISRDDSKNSIYLQMNSLKTEDTAVYYCHYVHYASASTVLPAFGVDAWGQGTTVTVSS
VL: DIVMTQSPLSLPVTPGEPASISCQASQELVHMNRNTYLHWYQQKPGQAPRLLIYKVPNRFPGVPDRFSGSGSGTDFTLKISRVEAEDVGVYYCAQGTSVPFTFGQGTKLEIK
notes: Dual-Ig
B20: H183/L072 VL S52N (antibody, name in Kabat numbering, V domains shown)
VH: QVQLVESGGGLVQPGRSLRLSCAASGFTFSNAWMHWVRQAPGKGLEWVAQIKDKGNAYAAYYAPSVKGRFTISRDDSKNSIYLQMNSLKTEDTAVYYCHYVHYASASTVLPAFGVDAWGQGTTVTVSS
VL: DIVMTQSPLSLPVTPGEPASISCQASQELVHMNRNTYLHWYQQKPGQAPRLLIYKVNNRFPGVPDRFSGSGSGTDFTLKISRVEAEDVGVYYCAQGTSVPFTFGQGTKLEIK
notes: Dual-Ig

target: T1, Human CD137 ECD (human); test: Biacore SPR, vs parent H183/L072
T1 construct: entry includes C-terminal His-tag and biotin acceptor peptide; also called human CD137 extracellular domain; 4-1BB
T1 sequence (chain, as listed by the source limits assumed): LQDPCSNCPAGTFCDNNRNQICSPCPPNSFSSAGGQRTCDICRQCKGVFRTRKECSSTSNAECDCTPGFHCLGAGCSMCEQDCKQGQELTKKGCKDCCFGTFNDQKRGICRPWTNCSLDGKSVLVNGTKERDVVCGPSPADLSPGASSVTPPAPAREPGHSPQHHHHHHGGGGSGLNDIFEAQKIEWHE

Binder | fold change of affinity [fold]
B1 | 0.7
B2 | 1
B3 | 0.8
B4 | 0.3
B5 | 1.2
B6 | 1.4
B7 | 0.1
B8 | 1.2
B9 | 1.1
B10 | 1
B11 | 1
B12 | 0.3
B13 | 0.8
B14 | 1
B15 | 1.2
B16 | 0.2
B17 | 1.2
B18 | 1
B19 | 0.3
B20 | 1
